The source of these data is publication PMC4960556.

The data set has as its target prostate-specific membrane antigen (PSMA) (UniProt Q04609). Briefly: confocal microscopy on cells (binding and internalization). The following applies: 2'-F pyrimidines (stated for PSEP; implied), Flow binding: 50 nM Cy3-RNA on trypsinized, PBS-washed cells, 300 ug/ml yeast tRNA, 30 min, 37 C, internalization: 100 nM in RPMI 1640 + 5% FBS.
Chain of UniProt Q04609 (Q04609 whole entry): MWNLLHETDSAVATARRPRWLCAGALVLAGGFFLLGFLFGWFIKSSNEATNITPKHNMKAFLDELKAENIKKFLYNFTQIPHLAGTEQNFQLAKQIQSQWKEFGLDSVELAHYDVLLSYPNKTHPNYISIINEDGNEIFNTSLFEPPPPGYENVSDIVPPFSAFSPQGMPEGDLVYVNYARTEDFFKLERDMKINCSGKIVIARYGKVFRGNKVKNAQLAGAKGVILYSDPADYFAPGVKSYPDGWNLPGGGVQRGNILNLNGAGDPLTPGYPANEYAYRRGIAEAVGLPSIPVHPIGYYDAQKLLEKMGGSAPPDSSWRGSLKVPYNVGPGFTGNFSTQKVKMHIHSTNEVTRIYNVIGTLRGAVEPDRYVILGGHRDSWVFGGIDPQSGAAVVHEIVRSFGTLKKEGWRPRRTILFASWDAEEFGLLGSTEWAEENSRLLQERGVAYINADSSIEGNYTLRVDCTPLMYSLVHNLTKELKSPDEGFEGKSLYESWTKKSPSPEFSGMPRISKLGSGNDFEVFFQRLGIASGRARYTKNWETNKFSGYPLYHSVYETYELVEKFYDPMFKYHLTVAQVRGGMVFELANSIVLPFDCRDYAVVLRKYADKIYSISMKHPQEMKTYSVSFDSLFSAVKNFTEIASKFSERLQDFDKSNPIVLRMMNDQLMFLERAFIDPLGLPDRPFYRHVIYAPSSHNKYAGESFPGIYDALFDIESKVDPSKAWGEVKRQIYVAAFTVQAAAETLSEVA

With “GGGAGGACGAUGCGGAUCAGCCAUGUUUACGUCACUCCUAAAAUGUAGAGAUGCGGUGGUCCUU / GGAUCCCGACUGGCGAGAGCCAGGUAACGAAUGGAUCCAAAAACCUUAGCAGUCUUAUCUAAUUUUGGACCACCGCAUCUCUACAUU / UUAGAUAAGACUGCUAAGGCA [PSEM (monovalent: one PSMA aptamer, one MG aptamer)]”, the binding signal (fraction of PSEP fluorescence) was 0.5.
